Assay results as given in publication PMC11229311, “Structural and functional investigation of the DHH/DHHA1 family proteins in Deinococcus radiodurans” (Nucleic Acids Research, 2024).

Biological target: the molecule itself
Assay: SEC; analytical gel filtration, Superdex 75 10/300 GL, 20 mM Tris pH 8.0, 100 mM NaCl, 1 mM TCEP; 300 ul of 1 mM protein loaded; calibrated with protein standards (6.5-75 kDa)

B1: Deinococcus radiodurans RecJ-like (DrRecJ-like), wild type (enzyme, UniProt Q9RW43 1-338, looked up)
chain: MTAENSATPDYRRNVGAVADALLAHPGPIVVLSHENPDGDALGSVLGLSRALRTLGKTVLAPMTVPHYLSFLPQPGELTAPLESWPQGALAAVLDVDNNDPVRVAGADLTQFDGPVVNVDHHGTNLRRADAGVVDPSKPAAAMMVADVIDALGAPWSEAVATPLMLGLNTDTGNFAFDSVSAETFECAARLRAHGARIGWLNDQMRQNPQSYYLLLREVLGKLEFLHGGRVVQTRVDEEMLARAGATWEQVENYVSMLRNAEGAQLAVMAKDYGDRVKFSLRSRGPVSAQNIAVALGGGGHVPAAGATVISSYAEARARLDAAIEAELARVDAQATAE
notes: RecJ-like protein (DR_0826) of Deinococcus radiodurans, full-length gene, residues 1-338, amplified from genomic DNA; DHH and DHHA1 domains; Tag-free after TEV cleavage of the His-MBP-TEV fusion (vector pET28-HMT); also called DrRecJ-like^wt; DrNrnA; source: E. coli Rossetta (DE3), purified (His-tag column, HiTrap Q, TEV tag removal, Superdex 75); not shown: His6, N-terminal, cleaved; MBP, …
stoichiometry N: 2
